# Patent US20210025901A1 (CALIFORNIA INSTITUTE OF TECHNOLOGY, published 2021)
# Bridge positions count the residues as written; N and C are the ends. Primed or numbered codes have the meaning given here. Ends that are not written are not given here. PEG3′ = not defined here
# B1: Biotin-PEG3-Cy(RSYNK)(SEQ ID NO:28)-PEG3-Cy(RRATS)(SEQ ID NO:9) (designed binder)
# peptide 1: RSYNK
# peptide 2: RRATS
# modifications: not fully specified (N-terminus, bridges); also: macrocycles joined by PEG3 linker (one PEGylated amino acid), attachment not given here, triazole to a chain's N/C-terminus
# notes: Two macrocycles covalently joined by one PEGylated amino acid; also called biligand Cy(RSYNK)-PEG3-Cy(RRATS)
# B2: YKYYR (SEQ ID NO:29) dimer (designed binder)
# peptide: YKYYR
# modifications: not fully specified (bridges)
# notes: also called two Cy(YKYYR) PCCs linked together with about a 1.5 nm long linker; linked biligand
# B3: Cy(QKHGP)(SEQ ID NO:15)-PEG3-biotin (peptide)
# peptide: QKHGP
# modifications: triazole (positions not given here); not fully specified (N-terminus, C-terminus, bridges); also: triazole cyclization via flanking Pra and Az4 residues, order not given here, PEG3-biotin, end not given here
# notes: also called PEG3-biotin-modified Cy(QKHGP)
# B4: Cy(TKHGP)(SEQ ID NO:16)-PEG3-biotin (peptide)
# peptide: TKHGP
# modifications: triazole (positions not given here); not fully specified (N-terminus, C-terminus, bridges); also: triazole cyclization via flanking Pra and Az4 residues, order not given here, PEG3-biotin, end not given here
# notes: also called PEG3-biotin-modified Cy(TKHGP)
# B5: Biotin-PEG3-Cy(RSYNK)(SEQ ID NO:28)-PEG2-Cy(RRATS)(SEQ ID NO:9) (designed binder)
# peptide 1: RSYNK
# peptide 2: RRATS
# modifications: triazole (positions not given here); not fully specified (N-terminus, bridges); also: each chain triazole-cyclized macrocycle, positions not given here, macrocycles joined by PEG2 linker, attachment points not given here
# B6: Cy(RRATS)(SEQ ID NO:9)-PEG3-biotin (peptide)
# peptide: RRATS-{PEG3′-biotin}
# modifications: triazole N-C; also: flanking Pra and Az4 residues, sides not given here
# notes: also called PEG3-biotin-modified Cy(RRATS)
# B7: Cy(RRAQS)(SEQ ID NO:10)-PEG3-biotin (peptide)
# peptide: RRAQS-{PEG3′-biotin}
# modifications: triazole N-C; also: flanking Pra and Az4 residues, sides not given here
# notes: also called PEG3-biotin-modified Cy(RRAQS)
# B8: cy(YKYYR)(SEQ ID NO:29)-linker-cy(GWNVDL)(SEQ ID NO:30) biligand (designed binder)
# peptide 1: YKYYR
# peptide 2: GWNVDL
# modifications: not fully specified (bridges)
# notes: also called resultant biligand
# B9: Biotin-PEG3-Cy(RSYNK)(SEQ ID NO:28)-PEG5-Cy(RRATS)(SEQ ID NO:9) (designed binder)
# peptide 1: RSYNK
# peptide 2: RRATS
# modifications: triazole (positions not given here); not fully specified (N-terminus, bridges); also: each chain triazole-cyclized macrocycle, positions not given here, macrocycles joined by PEG5 linker, attachment points not given here
# B10: Biotin-PEG3-Cy(RSYNK)(SEQ ID NO:28) (peptide)
# peptide: RSYNK
# modifications: triazole N-C; not fully specified (N-terminus, C-terminus); also: flanking Pra and Az4 residues, sides not given here
# notes: also called PEG3-biotin-modified Cy(RSYNK)
# B11: Biotin-PEG3-Cy(KKGWP)(SEQ ID NO:23) (peptide)
# peptide: KKGWP
# modifications: triazole N-C; not fully specified (N-terminus, C-terminus); also: flanking Pra and Az4 residues, sides not given here
# notes: also called PEG3-biotin-modified Cy(KKGWP)
# How the values were obtained:
# [1] = molecular target: T1, Full-length His-tagged IL-17F protein (ab167911, Abcam) (human, UniProt Q96PD4 31-163); assay: method not stated, FIG. 12C; biligand with PEG3 linker
# T1 construct: Bought protein, called 'full-length'; also called human IL-17F protein; not shown: His tag
# T1 chain: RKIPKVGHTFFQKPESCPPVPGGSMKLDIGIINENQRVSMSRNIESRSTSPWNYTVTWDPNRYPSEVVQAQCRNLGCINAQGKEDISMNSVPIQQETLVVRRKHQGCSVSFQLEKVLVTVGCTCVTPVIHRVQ
# [2] = molecular target: T1, Full-length His-tagged IL-17F protein …; assay: fluorescence titration of IL17F protein (nM) against the biotinylated biligand; protocol not described for this figure; the arrow from the number points to the PEG3 entry of the legend box
# [3] = molecular target: T2, Plasmodium falciparum Histidine Rich Protein-2 (Pf.HRP-2) (Plasmodium falciparum); assay: method not stated, FIG. 15; two Cy(YKYYR) joined by about a 1.5 nm linker
# T2 construct: The construct used in the assays is not described; the whole entry is named
# T2 chain: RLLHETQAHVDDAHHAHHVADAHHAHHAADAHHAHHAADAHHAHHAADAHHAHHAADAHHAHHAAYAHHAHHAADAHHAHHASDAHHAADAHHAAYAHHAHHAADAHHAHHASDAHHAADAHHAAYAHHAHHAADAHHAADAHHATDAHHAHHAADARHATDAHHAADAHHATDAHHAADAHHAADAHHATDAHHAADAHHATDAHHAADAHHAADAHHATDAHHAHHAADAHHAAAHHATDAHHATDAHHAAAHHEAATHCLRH
# [4] = molecular target: T3, Full-length His-tagged IL-17A protein (ab166882, Abcam) (human, UniProt Q16552 24-155); assay: point ELISA, IL17F or IL17A at 100 nM, mean subtracted fluorescence; protocol not described for this panel
# T3 construct: Bought protein; it may not be the whole protein; also called human IL-17A protein; not shown: His tag
# T3 sequence: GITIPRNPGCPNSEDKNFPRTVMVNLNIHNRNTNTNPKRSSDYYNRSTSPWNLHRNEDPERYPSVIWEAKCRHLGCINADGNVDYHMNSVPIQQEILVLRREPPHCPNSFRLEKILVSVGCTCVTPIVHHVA
# [5] = molecular target: T3, Full-length His-tagged IL-17A protein …; assay: point ELISA: ligand on NeutrAvidin plate, His-tagged protein at 100 nM, anti-His-AP detection, subtracted fluorescence
# [6] = molecular target: Full-length His-tagged IL-17F protein (ab167911, Abcam) (human) (UniProt Q96PD4); assay: fluorescence titration of IL17F protein (nM) against the biotinylated biligand; protocol not described for this figure
# [7] = molecular target: T1, Full-length His-tagged IL-17F protein …; assay: point ELISA, His-IL-17F vs His-IL-17A at 200 and 50 nM
# [8] = molecular target: T4, His-tagged IL-17F epitope scrambled N-terminal to click handle (C48S) (also: His6 tag, position and spacer not given here); assay: point ELISA: ligand on NeutrAvidin plate, His-tagged epitope peptide at 2 uM, anti-His-AP detection, no-epitope background subtracted
# T4 construct: Chemically synthesized, His6 handle; residues N-terminal to C48S (FFQKPES) scrambled
# T4 peptide: SQFEKFPSPPVPGGS
# [9] = molecular target: T2, Plasmodium falciparum Histidine Rich …; assay: plot 'Affinity': fraction bound against [Pf.HRP2] (molar); protocol not described
# [10] = molecular target: T1, Full-length His-tagged IL-17F protein …; assay: point ELISA, His-IL-17F vs His-IL-17A at 100 nM
binder,measurement,setting,value
B1,Kd,[1],0.25 nM
same,EC50,[2],~0.25 nM
B2,EC50,[3],20 nM
B3,binding result,[4],no binding (tested: 100 nM)
B4,binding result,[5],no binding (tested: 100 nM)
B5,EC50 (read off the curve),[6],4 nM
B6,selectivity for IL-17F over IL-17A,[7],2 ratio
same,binding result,[8],no binding (tested: 2 uM)
B7,selectivity for IL-17F over IL-17A,[7],2 ratio
same,binding result,[8],no binding (tested: 2 uM)
B8,EC50,[9],0.542 nM
B9,EC50 (read off the curve),[6],4 nM
B10,selectivity for IL-17F over IL-17A,[10],4 ratio
B11,selectivity for IL-17F over IL-17A,[10],4 ratio
